Consider one protein from article PMC9097460, “The molecular basis of spinocerebellar ataxia type 48 caused by a de novo mutation in the ubiquitin ligase CHIP” (The Journal of Biological Chemistry, 2022).

The data set deals with the molecule itself. Description: SEC + other: mass photometry; recombinant CHIP run on size-exclusion chromatography, fractions analysed by mass photometry at 30 nM in 20 mM Hepes pH 8, 200 mM NaCl, 1 mM DTT. (In gel filtration, larger molecules generally elute earlier.)

B1: CHIP A52G point mutant, recombinant (enzyme, human, UniProt Q9UNE7 1-303, looked up)
chain: MKGKEEKEGGARLGAGGGSPEKSPSAQELKEQGNRLFVGRKYPEAAACYGRGITRNPLVAVYYTNRALCYLKMQQHEQALADCRRALELDGQSVKAHFFLGQCQLEMESYDEAIANLQRAYSLAKEQRLNFGDDIPSALRIAKKKRWNSIEERRIHQESELHSYLSRLIAAERERELEECQRNHEGDEDDSHVRAQQACIEAKHDKYMADMDELFSQVDEKRKKRDIPDYLCGKISFELMREPCITPSGITYDRKDIEEHLQRVGHFDPVTRSPLTQEQLIPNLAMKEVIDAFISENGWVEDY
notes: CHIP (STUB1 product) with the patient's de novo A52G mutation (c.155C > G), introduced by QuikChange into the pGEX6p-1 construct; Mutation found in a patient with SCA48; also called A52G mutant; source: E. coli, purified
With B1, the binding result is “binds”.
